Test results reported in IntAct's records for PubMed 26192437.

B1: CDK5 regulatory subunit-associated protein 2 (Homo sapiens), Q96SN8 (parent)
chain: MMDLVLEEDVTVPGTLSGCSGLVPSVPDDLDGINPNAGLGNGLLPNVSEETVSPTRARNMKDFENQITELKKENFNLKLRIYFLEERMQQEFHGPTEHIYKTNIELKVEVESLKRELQEREQLLIKASKAVESLAEAGGSEIQRVKEDARKKVQQVEDLLTKRILLLEKDVTAAQAELEKAFAGTETEKALRLRLESKLSEMKKMHEGDLAMALVLDEKDRLIEELKLSLKSKEALIQCLKEEKSQMACPDENVSSGELRGLCAAPREEKERETEAAQMEHQKERNSFEERIQALEEDLREKEREIATEKKNSLKRDKAIQGLTMALKSKEKKVEELNSEIEKLSAAFAKAREALQKAQTQEFQGSEDYETALSGKEALSAALRSQNLTKSTENHRLRRSIKKITQELSDLQQERERLEKDLEEAHREKSKGDCTIRDLRNEVEKLRNEVNEREKAMENRYKSLLSESNKKLHNQEQVIKHLTESTNQKDVLLQKFNEKDLEVIQQNCYLMAAEDLELRSEGLITEKCSSQQPPGSKTIFSKEKKQSSDYEELIQVLKKEQDIYTHLVKSLQESDSINNLQAELNKIFALRKQLEQDVLSYQNLRKTLEEQISEIRRREEESFSLYSDQTSYLSICLEENNRFQVEHFSQEELKKKVSDLIQLVKELYTDNQHLKKTIFDLSCMGFQGNGFPDRLASTEQTELLASKEDEDTIKIGEDDEINFLSDQHLQQSNEIMKDLSKGGCKNGYLRHTESKISDCDGAHAPGCLEEGAFINLLAPLFNEKATLLLESRPDLLKVVRELLLGQLFLTEQEVSGEHLDGKTEKTPKQKGELVHFVQTNSFSKPHDELKLSCEAQLVKAGEVPKVGLKDASVQTVATEGDLLRFKHEATREAWEEKPINTALSAEHRPENLHGVPGWQAALLSLPGITNREAKKSRLPILIKPSRSLGNMYRLPATQEVVTQLQSQILELQGELKEFKTCNKQLHQKLILAEAVMEGRPTPDKTLLNAQPPVGAAYQDSPGEQKGIKTTSSVWRDKEMDSDQQRSYEIDSEICPPDDLASLPSCKENPEDVLSPTSVATYLSSKSQPSAKVSVMGTDQSESINTSNETEYLKQKIHDLETELEGYQNFIFQLQKHSQCSEAIITVLCGTEGAQDGLSKPKNGSDGEEMTFSSLHQVRYVKHVKILGPLAPEMIDSRVLENLKQQLEEQEYKLQKEQNLNMQLFSEIHNLQNKFRDLSPPRYDSLVQSQARELSLQRQQIKDGHGICVISRQHMNTMIKAFEELLQASDVDYCVAEGFQEQLNQCAELLEKLEKLFLNGKSVGVEMNTQNELMERIEEDNLTYQHLLPESPEPSASHALSDYETSEKSFFSRDQKQDNETEKTSVMVNSFSQDLLMEHIQEIRTLRKRLEESIKTNEKLRKQLERQGSEFVQGSTSIFASGSELHSSLTSEIHFLRKQNQALNAMLIKGSRDKQKENDKLRESLSRKTVSLEHLQREYASVKEENERLQKEGSEKERHNQQLIQEVRCSGQELSRVQEEVKLRQQLLSQNDKLLQSLRVELKAYEKLDEEHRRLREASGEGWKGQDPFRDLHSLLMEIQALRLQLERSIETSSTLQSRLKEQLARGAEKAQEGALTLAVQAVSIPEVPLQPDKHDGDKYPMESDNSFDLFDSSQAVTPKSVSETPPLSGNDTDSLSCDSGSSATSTPCVSRLVTGHHLWASKNGRHVLGLIEDYEALLKQISQGQRLLAEMDIQTQEAPSSTSQELGTKGPHPAPLSKFVSSVSTAKLTLEEAYRRLKLLWRVSLPEDGQCPLHCEQIGEMKAEVTKLHKKLFEQEKKLQNTMKLLQLSKRQEKVIFDQLVVTHKILRKARGNLELRPGGAHPGTCSPSRPGS

Variants of: B1
Conditions: with tbg1_human TUBG1, P23258
Chain of tbg1_human TUBG1, P23258 (P23258 whole entry): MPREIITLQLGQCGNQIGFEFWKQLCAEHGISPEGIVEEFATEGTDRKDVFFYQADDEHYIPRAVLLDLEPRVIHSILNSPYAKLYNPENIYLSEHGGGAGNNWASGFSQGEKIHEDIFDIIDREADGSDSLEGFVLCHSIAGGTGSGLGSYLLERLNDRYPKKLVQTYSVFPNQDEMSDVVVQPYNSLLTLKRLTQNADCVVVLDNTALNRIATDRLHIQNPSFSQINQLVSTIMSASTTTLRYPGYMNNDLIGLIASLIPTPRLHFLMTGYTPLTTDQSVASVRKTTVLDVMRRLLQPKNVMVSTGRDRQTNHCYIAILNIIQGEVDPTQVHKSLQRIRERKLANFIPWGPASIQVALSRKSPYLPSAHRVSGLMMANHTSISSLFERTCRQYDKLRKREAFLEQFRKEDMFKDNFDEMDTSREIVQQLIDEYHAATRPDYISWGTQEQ

Row | Variant | effect of a mutation on the interaction
1 | S140A | decreasing interaction strength
